Consider 3 substances from publication PMC12362114.

For series [1], the target named is 3xFlag-FASN wild type (fatty acid synthase) (UniProt P49327). As to the kind of experiment: native gel or EMSA; lysates of transfected Hep3B cells (10 mM Tris/HCl, 1 mM EDTA, 1 mM EGTA, 0.5% Triton X-100, pH 7.5) on a 4-to-10% gradient gel, 50 V overnight at 4 °C, blotted for 3xFlag-FASN; monomers (~250 kDa) and dimers (~500 kDa).
A short description of series [2]: anti-Flag Western blot, Hep3B lysates. Conditions: glycan lost; control: wild type 3xFlag-FASN. In general terms: A western blot detects proteins with antibodies after separation by electrophoresis.
Series [3] is described as follows: BODIPY 493/503 staining, confocal, droplet count. To be noted: glycan lost; control: wild type 3xFlag-FASN.
Series [4] is described as follows: cell fractionation (membrane vs cytosol), Western blot. Conditions: glycan lost; control: wild type 3xFlag-FASN.
A short description of series [5]: cycloheximide chase 0-24 h, protein remaining. Conditions: glycan lost; control: wild type 3xFlag-FASN.

As usually defined, the stoichiometry N is a count of units in the complex or per binding partner.

Turning to “3xFlag-FASN wild type (fatty acid synthase), P49327 1-2511”, the stoichiometry N in series [1] was 2.

Turning to Fatty Acid Synthase (FASN): S595A, the expression_or_secretion entry in series [2] is on record as “decreases”. For the same substance, the “other: lipid droplet number (activity proxy)” value in series [3] is reported as “no change”. For the same substance, the localisation_or_trafficking result in series [4] was “no change”.

For the substance Fatty Acid Synthase (FASN): T980A, the expression_or_secretion entry in series [2] is listed as “decreases”. In addition, the degradation_or_half_life entry in series [5] is reported as “decreases”. Also, in series [4], the localisation_or_trafficking result is reported as “decreases”.
